The term IC50 denotes the point on the concentration scale where inhibition reaches its midpoint. The term Kd denotes a measure of binding affinity in units of concentration. A low value points to higher affinity. By koff is commonly meant the rate constant with which the complex falls apart. Low values mean slow dissociation, high ones fast dissociation. A word on the kon: it is the rate constant with which the complex forms. A high value points to fast association.

Test [1] deals with T1, Human CD27, full length on the cell surface (human, UniProt P26842 21-260). The test is described as follows: cell-based or functional assay.
In test [2] the target is T2, Recombinant human CD27/Fc chimera (R&D Systems, Cat#382-CD) (human, UniProt P26842 20-191).
T2 construct: extracellular domain; bought protein; also called huCD27-Fc; Hu CD27 Fc; Fc part of the bought chimera not given
The test is described as follows: inhibition of IM-9 (CD70+) cell binding to immobilized CD27/Fc.

In test [3] the target is T1, Human CD27, full length on the cell …. The test is described as follows: cell-based or functional assay. The source holds these as a separate data set.
In test [4] the target is T3, Human CD27 ECD, monomeric soluble (construct limits not stated) (human, UniProt P26842 20-191).
T3 construct: extracellular domain; target of the Biacore assays; also called monomeric soluble CD27; CD27-His
The test is described as follows: Biacore SPR; mAb captured via anti-mouse Fc; CD27 ECD as analyte; 25 C. (SPR reads the build-up and loss of mass on a sensor chip optically.)

In test [5] the target is T4, Human CD27 ECD (ECD 1-173, His6) (human, UniProt P26842 21-193, biotinylated on amine residues (NHS-ester) where used biotinylated).
T4 construct: also called biotinylated human CD27 ECD
The test is described as follows: Fab format, pIX display and binding.

The target of test [6] is T5, Human CD27 ECD truncated (ECD 1-121, cleavage site, His6) (human).
T5 construct: also called human CD27 ECD with His Tag; CD27-His
T5 chain: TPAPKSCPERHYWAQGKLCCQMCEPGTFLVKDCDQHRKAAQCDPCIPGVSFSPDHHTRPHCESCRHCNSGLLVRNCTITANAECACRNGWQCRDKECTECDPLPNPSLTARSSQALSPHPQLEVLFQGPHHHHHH
The test is described as follows: ProteOn SPR, purified mAb, CD27-His.

Test [7] deals with T3, Human CD27 ECD, monomeric soluble …. The test is described as follows: Biacore SPR, purified mAb; reference M160.
For test [8] the target is unchanged. The test is described as follows: Biacore SPR, purified mAb.
For test [9], the target named is T5, Human CD27 ECD truncated (ECD 1-121, …). The test is described as follows: ProteOn SPR, purified mAb, CD27-His.
In test [10] the target is T3, Human CD27 ECD, monomeric soluble …. The test is described as follows: Biacore SPR, purified mAb; reference M158.
Test [11] shares this target. The test is described as follows: Biacore SPR, purified mAb; reference M166.

T3 sequence (P26842 20-191): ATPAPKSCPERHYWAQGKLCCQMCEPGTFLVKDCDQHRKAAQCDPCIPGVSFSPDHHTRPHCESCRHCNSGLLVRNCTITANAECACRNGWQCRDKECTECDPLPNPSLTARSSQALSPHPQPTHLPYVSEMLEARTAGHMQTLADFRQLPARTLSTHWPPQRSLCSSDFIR
T2 sequence (P26842 20-191, change not shown): as the sequence (P26842 20-191) above

B1: C2192 (antibody, V domains shown)
VH: QVQLQQSGPELVKPGASVKISCKASGYAFSSSWMNWVKQRPGKGLEWIGRIYPGDGDTNYNGKFKGKATLTADKSSSTAYMQLSSLTSEDSAVYFCARRWDGGNYFFDYWGQGTTLTVSS
VL: DIVMTQSHKFMSTSVGDRVSITCMASQDVGTAVAWYQRRPGQSPKLLIYWTSTRHTGVPDRFTGSGSGTDFTLTISNVQSEDLADYFCQQYSSYPLTFGSGTKLEIK
As for B1, in test [1], the “Plasma blast differentiation % Inhibition at 2.5 ug/ml” value was 74%, the “T-Cell Proliferation % Inhibition at highest concentration (30 ug/ml)” value (from here on “T-Cell Proliferation % Inhibition”) worked out at 75.7% and the “T-Cell Proliferation - CD4+ Cells IC50” value came to 0.445 µg/mL. The half-inhibitory concentration (IC50) in [2] came to 0.054 µg/mL. Besides, in test [3], the “Agonism at 50 ug/ml (fold-increase in reporter gene signal relative to isotype control)” value was determined as 5.39 fold and the “NF-kB reporter IC50” value came out at 0.232 µg/mL. Besides, the affinity in [4], expressed as Kd, was 0.21 nM.

B2: Parent Fab (VH3-23/Vk012 HFR Fab of C2191) (Fab, V domains shown)
VH: EVQLLESGGGLVQPGGSLRLSCAASGFTFSSYTMSWVRQAPGKGLEWVSYISSGGGNTYYPDSVKGRFTISRDNSKNTLYLQMNSLRAEDTAVYYCARHRGNPFDYWGQGTLVTVSS
VL: DIQMTQSPSSLSASVGDRVTITCRASKSVSTSGYSFMHWYQQKPGKAPKLLIYLASNLESGVPSRFSGSGSGTDFTLTISSLQPEDFATYYCQHSRELPWTFGQGTKVEIK
notes: Fab with human CH1 and Ck in the pIX phage display vector; also called H39/L40; parental HFR Fab
Take B2: the binding result in [5] is “binds”.

B3: M169 (antibody, V domains shown)
VH: EVQLVQSGAEVKKPGESLKISCKGSGYAFSSSWMNWVRQMPGKGLEWMGRIYSGDGDTNYNGKFKGQVTISADKSISTAYLQWSSLKASDTAMYYCARSDYYGDYGFAYWGQGTLVTVSS
VL: DIQMTQSPSSLSASVGDRVTITCKASQSVDYAGDSFMNWYQQKPGKAPKLLIYAASNLESGVPSRFSGSGSGTDFTLTISSLQPEDFATYYCQQSNEDPYTFGQGTKVEIK
notes: isotype not restated (path 2 mAbs were IgG4 Ser to Pro, Ala/Ala / kappa); also called H221, L219; CM169
For B3, in test [6], the affinity, expressed as Kd, was 0.059 nM; the off-rate (koff) was found to be 0.000139 s⁻¹; the kon is 2.36e+06 M⁻¹ s⁻¹. For the same molecule, the “fold improvement in KD against the corresponding VH1-46 variant” value (from here on “fold improvement in KD”) in test [7] was 2 fold. In [8], this molecule yielded a dissociation constant Kd of 0.069 nM, a koff of 0.000102 s⁻¹ and a kon of 1.48e+06 M⁻¹ s⁻¹.

B4: M671 (antibody, V domains shown)
VH: EVQLVQSGAEVKKPGESLKISCKGSGYAFSSSWMNWVRQMPGKGLEWMGRIYSGDADTNYNQKFKGQVTISADKSISTAYLQWSSLKASDTAMYYCARSDYYGDYGFAYWGQGTLVTVSS
VL: DIQMTQSPSSLSASVGDRVTITCKASQSVDYAGESFMNWYQQKPGKAPKLLIYAASNLESGVPSRFSGSGSGTDFTLTISSLQPEDFATYYCQQSNEDPYTFGQGTKVEIK
notes: isotype not restated (path 2); also called H258,L266
As to B4, in test [6], the affinity, expressed as Kd, was 0.039 nM; the koff came out at 9.73e-05 s⁻¹; the kon is 2.52e+06 M⁻¹ s⁻¹. Besides, the “fold lower KD against the parental mAb M169” value in [9] is roughly 2 fold.

B5: M55 (VH1-46/Vk012 HFR Fab of C2177) (Fab, V domains shown)
VH: QVQLVQSGAEVKKPGASVKVSCKASGYAFSSSWMNWVRQAPGQGLEWMGRIYPGDGDTNYNGKFKGRVTMTRDTSTSTVYMELSSLRSEDTAVYYCARSDYYGDYGFAYWGQGTLVTVSS
VL: DIQMTQSPSSLSASVGDRVTITCKASQSVDYAGDSYMNWYQQKPGKAPKLLIYAASNLESGVPSRFSGSGSGTDFTLTISSLQPEDFATYYCQQSNEDPYTFGQGTKLEIK
notes: Fab with human CH1 and Ck in the pIX phage display vector; also called H25/L36; parent HFR Fab
For the molecule B5, the binding result in test [5] is “binds”.

B6: M171 (antibody, V domains shown)
VH: EVQLVQSGAEVKKPGESLKISCKGSGYAFSSSWMNWVRQMPGKGLEWMGRIYSGDGDTNYNGKFKGQVTISADKSISTAYLQWSSLKASDTAMYYCARSDYYGDYGFAYWGQGTLVTVSS
VL: DIQMTQSPSSLSASVGDRVTITCKASQSVDYAGDSYMNWYQQKPGKAPKLLIYAASNLESGVPSRFSGSGSGTDFTLTISSLQPEDFATYYCQQSNEDPYTFGQGTKVEIK
notes: isotype not restated (path 2); also called H221, L220
In test [8], B6 gave a dissociation constant (Kd) of 0.234 nM, a dissociation rate constant (koff) of 0.000358 s⁻¹ and a kon of 1.53e+06 M⁻¹ s⁻¹. In [10], the “fold improvement in KD” value amounted to 2 fold.

B7: M668 (antibody, V domains shown)
VH: QVQLVQSGAEVKKPGASVKVSCKASGYAFSSSWMNWVRQAPGQGLEWMGRIYSGDADTNYAQKFKGRVTMTRDTSTSTVYMELSSLRSEDTAVYYCARSDYYGDYGFAYWGQGTLVTVSS
VL: DIQMTQSPSSLSASVGDRVTITCKASQSVDYAGESFMNWYQQKPGKAPKLLIYAASNLESGVPSRFSGSGSGTDFTLTISSLQPEDFATYYCQQSNEDPYTFGQGTKVEIK
notes: isotype not restated (path 2); also called H255,L266
In test [6], B7 came in with a Kd of 0.06 nM, a koff of 0.000129 s⁻¹ and a kon of 2.14e+06 M⁻¹ s⁻¹. The “fold lower KD against the parental mAb M160” value in test [9] was roughly 2 fold.

B8: M170 (antibody, V domains shown)
VH: EVQLVQSGAEVKKPGESLKISCKGSGYAFSSSWMNWVRQMPGKGLEWMGRIYSGDGDTNYNGKFKGQVTISADKSISTAYLQWSSLKASDTAMYYCARSDYYGDYGFAYWGQGTLVTVSS
VL: DIQMTQSPSSLSASVGDRVTITCKASQSVDYAHESFMNWYQQKPGKAPKLLIYAASNLESGVPSRFSGSGSGTDFTLTISSLQPEDFATYYCQQSNEDPYTFGQGTKVEIK
notes: isotype not restated (path 2); also called H221, L217
For the molecule B8, the “fold improvement in KD” value in test [11] is 2 fold. In test [8], this molecule came in with a Kd of 0.07 nM, a koff of 0.000116 s⁻¹ and a kon of 1.66e+06 M⁻¹ s⁻¹.

B9: C2186 (antibody, V domains shown)
VH: QVQLQQPGAELVKPGASVKLSCKASGYTFTNYWMNWVKQRPGRGLEWIGRIHPSDSETHYNQNFKSKATLTVDKSSSTAYIQLSSLTSEDSAVYYCARPVLYGDYGFPCWGQGTLVTVSA
VL: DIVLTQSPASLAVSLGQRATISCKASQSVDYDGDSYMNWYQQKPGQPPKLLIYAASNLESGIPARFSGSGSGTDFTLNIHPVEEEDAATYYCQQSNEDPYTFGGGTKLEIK
With B9, in test [1], the “Plasma blast differentiation % Inhibition at 2.5 ug/ml” value is 93%, the “T-Cell Proliferation % Inhibition” value worked out at 65.3% and the “T-Cell Proliferation - CD4+ Cells IC50” value worked out at 0.775 µg/mL. The IC50 in test [2] turned out to be 0.059 µg/mL. In test [3], the “Agonism at 50 ug/ml (fold-increase in reporter gene signal relative to isotype control)” value was 2.55 fold and the “NF-kB reporter IC50” value was found to be 0.105 µg/mL. The molecule also yielded a Kd in test [4] of 2.55 nM.

B10: C2191 (antibody, V domains shown)
VH: EVKLVESGGGLVKPGGSLKLSCAASGFTFSSYTMSWVRQTPEKRLEWVAYISSGGGNTYYPDSVKGRFTISRDNARNTLYLQMSSLRSEDTAMYYCSRHRGNPFDYWGQGTTLTVSS
VL: DIVLTQSPASLAVSLGQRATISCRASKSVSTSGYSFMHWYQQKPGQPPKLLIYLASNLESGVPARFSGSGSGTDFTLNIHPVEEEDAATYYCQHSRELPWTFGGGTKLEIK
notes: also called C2191 hybridoma mAb
As for B10, in [1], the “Plasma blast differentiation % Inhibition at 2.5 ug/ml” value turned out to be 105%, the “T-Cell Proliferation % Inhibition” value amounted to 58.3% and the “T-Cell Proliferation - CD4+ Cells IC50” value worked out at 0.3 µg/mL. The IC50 in test [2] was found to be 0.059 µg/mL. Also, in test [3], the “Agonism at 50 ug/ml (fold-increase in reporter gene signal relative to isotype control)” value turned out to be 3.05 fold and the “NF-kB reporter IC50” value is 0.08 µg/mL. The Kd in test [4] was 2.62 nM.

For the origin of these results see patent US20130243795A1 (Janssen / Centocor, published 2013).
